Laboratory results reported in article PMC11765556, “Cytosine Methylation Changes the Preferred Cis-Regulatory Configuration of Arabidopsis WUSCHEL-Related Homeobox 14”.

T1: AtWOX14 (monomer) (Arabidopsis thaliana, UniProt Q9LM84 1-211)
T1 sequence: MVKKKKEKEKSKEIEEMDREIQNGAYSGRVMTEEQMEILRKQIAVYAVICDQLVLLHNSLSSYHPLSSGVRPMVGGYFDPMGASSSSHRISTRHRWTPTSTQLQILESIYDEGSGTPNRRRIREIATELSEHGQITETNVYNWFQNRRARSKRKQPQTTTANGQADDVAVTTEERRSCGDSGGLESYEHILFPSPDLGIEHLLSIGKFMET

T2: AtWOX14 (homodimer on DNA) (Arabidopsis thaliana, UniProt Q9LM84 1-211)
T2 sequence: T1 sequence

B1: ER0 (dsDNA)
DNA 1: ATGCTAGCTCCATCTGTGATTGCAATCAATGGCGGTGACGTACT
DNA 2: AGTACGTCACCGCCATTGATTGCAATCACAGATGGAGCTAGCAT
B2: ER0-AT1G15640 (dsDNA)
DNA 1: AATAAGATGTACCCAATGATTGCAATGATGAGCCCAATGAGTGC
DNA 2: GCACTCATTGGGCTCATCATTGCAATCATTGGGTACATCTTATT
B3: ER1 (dsDNA)
DNA 1: ATGCTAGCTCCATCTGTGATTGACAATCAATGGCGGTGACGTACT
DNA 2: AGTACGTCACCGCCATTGATTGTCAATCACAGATGGAGCTAGCAT
B4: M1 (dsDNA)
DNA 1: ATGCTAGCTCCATCTGTATTGATTGTTTATGGCGGTGACGTACT
DNA 2: AGTACGTCACCGCCATAAACAATCAATACAGATGGAGCTAGCAT

Assays:
[1] = target: T1, AtWOX14 (monomer); experiment: EMSA; 50-200 nM WOX14; monomeric shift; EMSA: 10 mM Tris (pH not stated), 50 mM NaCl, 1 mM MgCl2, 4% glycerol, 0.5 mM EDTA, 25 C 40 min, 30 ng probe in 20 uL; 6% native PAGE, 0.5x TBE, 4 C; conditions: protein: recombinant; tags: N-terminal His (pETG20A-His)
[2] = target: T2, AtWOX14 (homodimer on DNA); experiment: EMSA; 50-200 nM WOX14; dimeric shift at high protein; EMSA: 10 mM Tris (pH not stated), 50 mM NaCl, 1 mM MgCl2, 4% glycerol, 0.5 mM EDTA, 25 C 40 min, 30 ng probe in 20 uL; 6% native PAGE, 0.5x TBE, 4 C; conditions: protein: recombinant; tags: N-terminal His (pETG20A-His); chain copies: 2
[3] = target: T2, AtWOX14 (homodimer on DNA); experiment: EMSA; 25-200 nM WOX14; dimeric shift; EMSA: 10 mM Tris (pH not stated), 50 mM NaCl, 1 mM MgCl2, 4% glycerol, 0.5 mM EDTA, 25 C 40 min, 30 ng probe in 20 uL; 6% native PAGE, 0.5x TBE, 4 C; conditions: protein: recombinant; tags: N-terminal His (pETG20A-His); chain copies: 2

Binder	binding result [1]	binding result [2]	binding result [3]
B1	binds	binds	
B2			binds
B3	binds	binds	
B4	binds		
